Target: F-actin (actin purified from rabbit muscle acetone powder) (rabbit, UniProt P68135 1-377)
Assay: co-sedimentation; F-actin co-sedimentation (supernatant depletion): constant 2 uM LEV-11 isoform with 0-60 uM F-actin, 1 h, in F-buffer (0.1 M KCl, 2 mM MgCl2, 20 mM HEPES-KOH, pH 7.5, 1 mM dithiothreitol); 200,000 x g for 20 min; bound portion from the depletion of the supernatant, SDS-PAGE densitometry
Settings: both partners purified

B1: LEV-11T (C. elegans low-molecular-weight tropomyosin isoform, exons E3b-E4a-E5a-E6-E7b-E8-E9b), recombinant with extra Ala-Ser after the initiator Met (natural protein)
chain: MASSKVNKEGAQQTSLLDVLKKKMRQAREEAEAAKDEADEVKRQLEEERKKREDAEAEVAALNRRIVLVEEDLERTEDRLKTATSKLEQATKAADEADRARKSMETRSQQDEERANFLETQVDEAKVIAEDADRKYEEVARKLAMVEADLERAEERAEAGENKIVELEEELRVVGNNLKSLEVSEEKALQREDSYEEQIRTVSSRLKEAETRAEFAERSVQKLQKEVDRLEELRDAEVLKARQLQDELDHMVQELNSV
B1 gave a Kd of 3.7 µM.

Reference: article PMC10512467, “Alternative splicing of a single exon causes a major impact on the affinity of Caenorhabditis elegans tropomyosin isoforms for actin filaments” (Frontiers in Cell and Developmental Biology, 2023)
